Assay results: paper PMC5628404 (2017)
Like-named read-outs stand apart in the source and are kept apart here.

What was measured:
Assay in all cases: SPR
[1] = biological target: T1, M1-linked di-ubiquitin chain (M1-Ub2) (human, UniProt P0CG48 1-76; P0CG48 1-76)
[2] = biological target: M1-linked tetra-ubiquitin chain (M1-Ub4) (human, UniProt P0CG48 1-76; P0CG48 1-76; P0CG48 1-76; P0CG48 1-76)
[3] = biological target: M1-linked tri-ubiquitin chain (M1-Ub3) (human, UniProt P0CG48 1-76; P0CG48 1-76; P0CG48 1-76)
[4] = biological target: T2, K27-linked di-ubiquitin (K27-Ub2) (human, UniProt P0CG48 1-76, isopeptide linkage between the C-terminal glycine of one ubiquitin and K27 of the other)
[5] = biological target: T2, K27-linked di-ubiquitin (K27-Ub2); remark: listed apart in the source
[6] = biological target: T1, M1-linked di-ubiquitin chain (M1-Ub2); remark: listed apart in the source
[7] = biological target: T3, K63-linked di-ubiquitin (K63-Ub2) (human, UniProt P0CG48 1-76, isopeptide linkage between the C-terminal glycine of one ubiquitin and K63 of the other)
[8] = biological target: T2, K27-linked di-ubiquitin (K27-Ub2); remark: listed apart in the source
[9] = biological target: T1, M1-linked di-ubiquitin chain (M1-Ub2); remark: listed apart in the source
[10] = biological target: T3, K63-linked di-ubiquitin (K63-Ub2); remark: listed apart in the source

Kd [1] | Kd [2] | Kd [3] | Kd [4] | Kd [5] | Kd [6] | Kd [7] | koff [8] | koff [9] | koff [10] | Binder
60.8 nM | 22 nM | 48.5 nM | 171 nM |  |  |  |  |  |  | BRAP (124–569) (RNF52 domain) (domain or fragment) DQISFFSGNPSVEIVHGIMHLYKTNKMTSLKEDVRRSAMLCILTVPAAMTSHDLMKFVAPFNEVIEQMKIIRDSTPNQYMVLIKFRAQADADSFYMTCNGRQFNSIEDDVCQLVYVERAEVLKSEDGASLPVMDLTELPKCTVCLERMDESVNGILTTLCNHSFHSQCLQRWDDTTCPVCRYCQTPEPVEENKCFECGVQENLWICLICGHIGCGRYVSRHAYKHFEETQHTYAMQLTNHRVWDYAGDNYVHRLVASKTDGKIVQYECEGDTCQEEKIDALQLEYSYLLTSQLESQRIYWENKIVRIEKDTAEEINNMKTKFKETIEKCDNLEHKLNDLLKEKQSVERKCTQLNTKVAKLTNELKEEQEMNKCLRANQVLLQNKLKEEERVLKETCDQKDLQITEIQEQLRDVMFYLETQQKINHLPAETRQEIQEGQINIAMASA
 |  |  |  | 6.27 nM | 5.19 nM | 11.3 nM | 0.00302 s⁻¹ | 0.00264 s⁻¹ | 0.00395 s⁻¹ | BRAP (1–592) (full-length) (natural protein) MSVSLVVIRLELAEHSPVPAGFGFSAAAGEMSDEEIKKTTLASAVACLEGKSPGEKVAIIHQHLGRREMTDVIIETMKSNPDELKTTVEERKSSEASPTAQRSKDHSKECINAAPDSPSKQLPDQISFFSGNPSVEIVHGIMHLYKTNKMTSLKEDVRRSAMLCILTVPAAMTSHDLMKFVAPFNEVIEQMKIIRDSTPNQYMVLIKFRAQADADSFYMTCNGRQFNSIEDDVCQLVYVERAEVLKSEDGASLPVMDLTELPKCTVCLERMDESVNGILTTLCNHSFHSQCLQRWDDTTCPVCRYCQTPEPVEENKCFECGVQENLWICLICGHIGCGRYVSRHAYKHFEETQHTYAMQLTNHRVWDYAGDNYVHRLVASKTDGKIVQYECEGDTCQEEKIDALQLEYSYLLTSQLESQRIYWENKIVRIEKDTAEEINNMKTKFKETIEKCDNLEHKLNDLLKEKQSVERKCTQLNTKVAKLTNELKEEQEMNKCLRANQVLLQNKLKEEERVLKETCDQKDLQITEIQEQLRDVMFYLETQQKINHLPAETRQEIQEGQINIAMASASSPASSGGSGKLPSRKGRSKRGK
